# Reference: US20240182547A1 (MOGAM INSTITUTE FOR BIOMEDICAL RESEARCH, published 2024)
# Molecular target: DS-Cav1 (RSV F-protein, pre-form, in-house) (respiratory syncytial virus (RSV), UniProt P03420 26-513)
# Assay: ELISA, coated DS-Cav1, IgG titrated
# Sequence of DS-Cav1 (RSV F-protein, pre-form, in-house) (P03420 26-524): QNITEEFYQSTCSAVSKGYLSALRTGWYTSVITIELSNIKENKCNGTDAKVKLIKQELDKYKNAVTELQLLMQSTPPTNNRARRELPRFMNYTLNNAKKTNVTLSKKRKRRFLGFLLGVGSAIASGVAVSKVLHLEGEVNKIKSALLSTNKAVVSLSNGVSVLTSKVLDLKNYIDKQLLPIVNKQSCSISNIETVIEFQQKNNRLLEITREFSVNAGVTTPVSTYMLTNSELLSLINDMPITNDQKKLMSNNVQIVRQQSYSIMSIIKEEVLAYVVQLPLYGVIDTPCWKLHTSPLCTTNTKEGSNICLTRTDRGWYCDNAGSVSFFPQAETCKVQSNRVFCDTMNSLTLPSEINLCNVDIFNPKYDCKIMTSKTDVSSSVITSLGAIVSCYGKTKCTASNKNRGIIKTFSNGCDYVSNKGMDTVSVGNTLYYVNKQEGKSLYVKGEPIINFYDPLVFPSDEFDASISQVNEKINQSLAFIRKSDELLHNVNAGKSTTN
row,Binder,Kd
1,"2G4 (antibody, V domains shown, IgG made in Expi293; also called #1) VH: EVQLVESGGGLVKPGGSLRLSCAASGFTFSSYTMHWVRQAPGKGLEWVSSITGGSSYVDYSASVKGRFTISRDNAQSSLYLQMNSLRAEDTAVYYCARDDYGSGSYSNWFDPWGQGTLVTVSS VL: QSVLTQPPSVSGAPGQRVTISCTGSSSNIGAGYDVHWYQQVPGTAPKLLIFGSTNRPSGVPDRFSGSKSGTSASLAITGLQADDEADYYCQSYDRSLSHVFGTGTKVTVLG",~1.01 nM
2,"4G4 (antibody, V domains shown, IgG made in Expi293; also called #10; 10) VH: EVQLVESGGGLVKPGGSLRLSCAGSGFTFSSYTMHWVRQAPGKGLEWVSSITGGSSYVDYSASVKGRFTISRDNAQSSLYLQMNSLRAEDTAVYYCARDDYGSGSYSNWFDPWGQGTLVTVSS VL: QSVLTQPPSVSGAPGQRVTISCTGNSSNLGAGYDVHWYQQLPGTAPKLLIYANTNRPSGVPDRFSGSKSGASASLAITGLQTEDEADYYCQSYDRSLSHVFGTGTKVTVLG",~0.38 nM
3,"2E9 (antibody, V domains shown, IgG made in Expi293; also called #14; 14) VH: QVTLKESGGGLVKPGGSLRLSCAGSGFTFSSYTMHWVRQAPGKGLEWVSSITGGSSYVDYSASVKGRFTISRDNAKNSLFLQMNSLRAEDTAVYYCARDDYGSGSYSNWFDPWGQGTLVTVSS VL: QSVLTQPPSVSGAPGQRVTISCTGSSSNIGAGYDVHWYQQLPGRAPKLLIFANTNRPSGVPDRFSGSKSGASASLAITGLQADDEADYYCQSYDRSLSHVFGTGTKVTVLG",~0.48 nM
4,"2H9 (antibody, V domains shown, IgG made in Expi293; also called #18; 18) VH: QVTLKESGGGLVKPGGSLRLSCAASGFTFTSYRMHWVRQAPGKGLEWVSSITGGGNYIEYADSVKGRFTISRDNAKNSLDLQMNSLRAEDTAIYYCARDMYGLGSYYSPNYFDPWGQGTLVTVSS VL: SYELTQPLSVSGAPGQRVTISCTGSSSNIGAGYDVHWYQQVPGTAPKLLIFGSTNRPSGVPDRFSGSKSGASASLAITGLQADDEADYYCQSYDRSLSHVFGTGTKVTVLG",~0.38 nM
5,"#15m (antibody, V domains shown, Germline-edited (m) form of 12B11, light chain edited; IgG; also called 12B11 (modified)) VH: EVQLVESGGGVVQPGRSLRLACAASGFTFNSYAMHWVRQAPGKGLEWVSSITGGSSYVDYSASVKGRFTISRDNAQSSLYLQMNSLRAEDTAVYYCARDMYGLGSYYSPNYFDPWGQGTLVTVSS VL: QSVLTQPPSVSGAPGQRVTISCTGSSSNIGAGYDVHWYQQLPGRAPKLLIFANTNRPSGVPDRFSGSKSGTSASLAITGLQAEDEADYYCQSYDSSLSYVFGTGTKVTVLG",~1.2 nM
6,"4E1 (antibody, V domains shown, IgG made in Expi293; also called #17; 17) VH: EVQLVESGGGLVQPGGSLRLACAASGFTFSSYTMHWVRQAPGKGLEWVSSITGGSSYVDYSASVKGRFTISRDNAQSSLYLQMNSLRAEDTAVYYCARDDYGSGSYSNWFDPWGQGTLVTVSS VL: SYELTQPPSVSGAPGQRVTISCTGSSSNIGAGYDVHWYQQLPGRAPKLLIFANTNRPSGVPDRFSGSKSGASASLAITGLQAEDEADYYCQSYDRSLSHVFGTGTKVTVLG",~0.56 nM
7,"10E7 (antibody, V domains shown, IgG made in Expi293; also called #13; 13) VH: EVQLVESGGGLVKPGGSLRLSCAASGFTFTSYRMHWVRQAPGKGLEWVSSITGGGNYIEYADSVKGRFTISRDNAKNSLDLQMNSLRAEDTAIYYCARDMYGLGSYYSPNYFDSWGQGTLVTVSS VL: QSVLTQPPSVSGAPGQRVTISCTGSSSNIGAGYDVHWYQQLPGRAPKLLIFANTNRPSGVPDRFSGSKSGASASLAITGLQADDEADYYCQSYDRSLSHVFGTGTKVTVLG",~1.73 nM
8,"#11m (antibody, V domains shown, Germline-edited (m) form of 12E9, light chain edited; IgG; also called 12E9 (modified)) VH: EVQLVESGGGLVKPGGSLRLSCAASGFTFTSYRMHWVRQAPGKGLEWVSSITGGGNYIEYADSVKGRFTISRDNAQSSLYLQMNSLRAEDTAVYYCARDDYGSGSYSNWFDPWGQGTLVTVSS VL: QSVLTQPPSVSGAPGQRVTISCTGSSSNIGAGYDVHWYQQLPGRAPKLLIFANTNRPSGVPDRFSGSKSGASASLAITGLQADDEADYYCQSYDRSLSHVFGTGTKVTVLG",~2.01 nM
9,"#17m (antibody, V domains shown, Germline-edited (m) form of 4E1, light chain edited; IgG; also called 4E1 (modified)) VH: EVQLVESGGGLVQPGGSLRLACAASGFTFSSYTMHWVRQAPGKGLEWVSSITGGSSYVDYSASVKGRFTISRDNAQSSLYLQMNSLRAEDTAVYYCARDDYGSGSYSNWFDPWGQGTLVTVSS VL: QSVLTQPPSVSGAPGQRVTISCTGSSSNIGAGYDVHWYQQLPGRAPKLLIFANTNRPSGVPDRFSGSKSGASASLAITGLQAEDEADYYCQSYDRSLSHVFGTGTKVTVLG",~1.13 nM
10,"12E9 (antibody, V domains shown, IgG made in Expi293; also called #11; 11) VH: EVQLVESGGGLVKPGGSLRLSCAASGFTFTSYRMHWVRQAPGKGLEWVSSITGGGNYIEYADSVKGRFTISRDNAQSSLYLQMNSLRAEDTAVYYCARDDYGSGSYSNWFDPWGQGTLVTVSS VL: QTVVTQEPSVSGAPGQRVTISCTGSSSNIGAGYDVHWYQQLPGRAPKLLIFANTNRPSGVPDRFSGSKSGASASLAITGLQADDEADYYCQSYDRSLSHVFGTGTKVTVLG",~0.57 nM
11,"#16m (antibody, V domains shown, Germline-edited (m) form of 3H8, light chain edited; IgG; also called 3H8 (modified)) VH: EVQLVESGGGLVKPGGSLRLSCAGSGFTFSSYTMHWVRQAPGKGLEWVSSITGGSSYVDYSASVKGRFTISRDNAQSSLYLQMNSLRAEDTAVYYCARDDYGSGSYSNWFDPWGRGTTVTVSS VL: QSVLTQPLSASGTPGQRVTISCTGSSSNIGAGYDVHWYQQLPGRAPKLLIFANTNRPSGVPDRFSGSKSGTSASLAITGLQAEDEADYYCQSYDRSLSHVFGTGTKVTVLG",~0.97 nM
12,"2H1 (antibody, V domains shown, IgG made in Expi293; also called #9) VH: QVTLKESGGGVVQSGRSLRLSCAASGFTFSSYTMHWVRQAPGKGLEWVSSITGGSSYVDYSASVKGRFTISRDNAQSSLYLQMNSLRAEDTAVYYCARDDYGSGSYSNWFDPWGQGTLVTVSS VL: QSVLTQPPSVSGAPGQRVTISCTGSSSNIGAGYDVHWYQQLPGRAPKLLIYANTNRPSGVADRFSGSKSGASASLAITGLQADDEADYYCQSYDRSLSHVFGTGTKVTVLG",~1.95 nM
13,"3H8 (antibody, V domains shown, IgG made in Expi293; also called #16; 16) VH: EVQLVESGGGLVKPGGSLRLSCAGSGFTFSSYTMHWVRQAPGKGLEWVSSITGGSSYVDYSASVKGRFTISRDNAQSSLYLQMNSLRAEDTAVYYCARDDYGSGSYSNWFDPWGRGTTVTVSS VL: QPVLTQPLSASGTPGQRVTISCTGSSSNIGAGYDVHWYQQLPGRAPKLLIFANTNRPSGVPDRFSGSKSGTSASLAITGLQAEDEADYYCQSYDRSLSHVFGTGTKVTVLG",~0.51 nM
14,"#12m (antibody, V domains shown, Germline-edited (m) form of 4F11, light chain edited; IgG; also called 4F11 (modified)) VH: EVQLVESGGGLVKPGGSLRLSCAGSGFAFSSYTMHWVRQAPGKGLEWVSSITGGSSYLDYAHSVKGRFTISRDNGQNSLFLQMNSLRTEDTAVYYCARDDYGSGSYSNYFDPWGQGTLVTVSS VL: QSVLTQPPSVSGAPGQRVTISCTGSSSNIGAGYDVHWYQQVPGTAPKLLIFGSTNRPSGVPDRFSGSKSGASASLAITGLQTEDEADYYCQSYDRSLSHVFGTGTKVTVLG",~1.82 nM
15,"4F11 (antibody, V domains shown, IgG made in Expi293; also called #12; 12) VH: EVQLVESGGGLVKPGGSLRLSCAGSGFAFSSYTMHWVRQAPGKGLEWVSSITGGSSYLDYAHSVKGRFTISRDNGQNSLFLQMNSLRTEDTAVYYCARDDYGSGSYSNYFDPWGQGTLVTVSS VL: QPVLTQPPSVSGAPGQRVTISCTGSSSNIGAGYDVHWYQQVPGTAPKLLIFGSTNRPSGVPDRFSGSKSGASASLAITGLQTEDEADYYCQSYDRSLSHVFGTGTKVTVLG",~0.43 nM
16,"2H3 (antibody, V domains shown, IgG made in Expi293; also called 2F5; #65) VH: EVQLVESGGGVVQSGRSLRLSCAGSGFTFSSYTMHWVRQAPGKGLEWVSSITGGSSYVDYSASVKGRFTISRDNAQSSLYLQMNSLRAEDTAVYYCARDDYGSGSYSNWFDPWGQGTLVTVSS VL: QSVLTQPPSVSGAPGQRVTISCTGSSSNIGAGYDVHWYQQVPGTAPKLLIFGSTNRPSGVPDRFSGSKSGASASLAITGLQTEDEADYYCQSYDRSLSHVFGTGTKVTVLG",~0.98 nM
17,"3E10 (antibody, V domains shown, IgG made in Expi293; also called #20; 20) VH: EVQLVESGGGLVKPGGSLRLSCAASGFTFTSYRMHWVRQAPGKGLEWVSSITGGGNYIEYADSVKGRFTISRDNAKNSLDLQMNSLRAEDTAIYYCARDMYGLGSYYSPNYFDPWGQGTLVTVSS VL: QPVLTQPPSVSGAPGQRVTISCTGSSSNIGAGYDVHWYQQVPGTAPKLLIFGSTNRPSGVPDRFSGSKSGASASLAITGLQTEDEADYYCQSYDRSLSHVFGTGTKVTVLG",~0.52 nM
18,"#20m (antibody, V domains shown, Germline-edited (m) form of 3E10, light chain edited; IgG; also called 3E10 (modified)) VH: EVQLVESGGGLVKPGGSLRLSCAASGFTFTSYRMHWVRQAPGKGLEWVSSITGGGNYIEYADSVKGRFTISRDNAKNSLDLQMNSLRAEDTAIYYCARDMYGLGSYYSPNYFDPWGQGTLVTVSS VL: QSVLTQPPSVSGAPGQRVTISCTGSSSNIGAGYDVHWYQQVPGTAPKLLIFGSTNRPSGVPDRFSGSKSGASASLAITGLQTEDEADYYCQSYDRSLSHVFGTGTKVTVLG",~0.88 nM
19,"12C11 (antibody, V domains shown, IgG made in Expi293; also called #19; 19) VH: EVQLVESGGGLVKPGGSLRLSCAASGFTFTSYRMHWVRQAPGKRLEWVSSITGGGNYIEYADSVKGRFTISRDNAKNSLDLQMNSLRAEDTAIYYCARDMYGLGSYYSPNYFDPWGQGTLVTVSS VL: QSVLTQPPSVSGAPGQRVTISCTGSSSNIGAGYDVHWYQQVPGTAPKLLIFGSTNRPSGVPDRFSGSKSGASASLAITGLQTEDEADYYCQSYDRSLSHVFGTGTKVTVLG",~0.72 nM
20,"12B11 (antibody, V domains shown, IgG made in Expi293; also called #15; 15) VH: EVQLVESGGGVVQPGRSLRLACAASGFTFNSYAMHWVRQAPGKGLEWVSSITGGSSYVDYSASVKGRFTISRDNAQSSLYLQMNSLRAEDTAVYYCARDMYGLGSYYSPNYFDPWGQGTLVTVSS VL: SYELTQPPSVSGAPGQRVTISCTGSSSNIGAGYDVHWYQQLPGRAPKLLIFANTNRPSGVPDRFSGSKSGTSASLAITGLQAEDEADYYCQSYDSSLSYVFGTGTKVTVLG",~0.72 nM
21,"#18m (antibody, V domains shown, Germline-edited (m) form of 2H9, heavy and light chain edited; IgG; also called 2H9 (modified)) VH: EVQLVESGGGLVKPGGSLRLSCAASGFTFTSYRMHWVRQAPGKGLEWVSSITGGGNYIEYADSVKGRFTISRDNAKNSLDLQMNSLRAEDTAIYYCARDMYGLGSYYSPNYFDPWGQGTLVTVSS VL: QSVLTQPLSVSGAPGQRVTISCTGSSSNIGAGYDVHWYQQVPGTAPKLLIFGSTNRPSGVPDRFSGSKSGASASLAITGLQADDEADYYCQSYDRSLSHVFGTGTKVTVL",~1.84 nM
